This note sets out measurements from patent US20250215052A1, “INHIBITORS OF PICK1 AND USES THEREOF” (University of Copenhagen, priority 2018, published 2025).

Like-named read-outs stand apart in the source and are kept apart here.

Assay [1] has as its target T1, Protein Interacting with C Kinase-1 (PICK1), purified recombinant, Q9EP80. Kind of assay: fluorescence polarization competition, tracer 5-FAM-TAT-C5, purified PICK1.
Assay [2] concerns the target T2, fluorescently labelled recombinant rat PICK1 (DY549-SNAP-PICK1) (rat), Q9EP80. Nature of the assay: SCMS, dissociation of PICK1 pre-bound to TacDAT C24 sheets by peptide.
Assay [3] addresses T1, Protein Interacting with C Kinase-1 …. Kind of assay: fluorescence polarization competition, tracer 5FAM-TAT-(C5), purified PICK1.
Assay [4] addresses T2, fluorescently labelled recombinant rat ….

T1 sequence (Q9EP80 whole entry): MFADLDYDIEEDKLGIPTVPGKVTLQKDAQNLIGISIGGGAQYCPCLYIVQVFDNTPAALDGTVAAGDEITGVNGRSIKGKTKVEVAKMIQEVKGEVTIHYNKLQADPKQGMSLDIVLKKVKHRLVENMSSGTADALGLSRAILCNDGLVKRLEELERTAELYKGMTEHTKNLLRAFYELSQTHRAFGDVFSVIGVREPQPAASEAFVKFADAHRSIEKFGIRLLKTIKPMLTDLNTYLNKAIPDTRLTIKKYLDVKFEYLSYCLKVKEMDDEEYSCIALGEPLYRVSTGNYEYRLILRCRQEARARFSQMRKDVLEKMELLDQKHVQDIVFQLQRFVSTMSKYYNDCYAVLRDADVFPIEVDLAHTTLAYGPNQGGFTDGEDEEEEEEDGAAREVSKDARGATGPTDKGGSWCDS
T2 sequence (Q9EP80 whole entry): as above

B1: TP10-P4-(C5)2 (peptide)
peptide 1: HWLKV
peptide 2: […]
modifications: not checked
As a reminder, the Ki is a dissociation constant, usually derived from enzyme kinetics or from competition with a known ligand. For the molecule B1, in assay [1], the Fold affinity change (vs TAT-P4-(C5)2) turned out to be 0.5 fold and the inhibition constant Ki came out at 7.8 nM.

B2: TAT11-PEG4-(DATC5)2 (peptide)
peptide 1: HWLKV
peptide 2: YGRKKRRQRRR
modifications: not checked
In general, IC50 refers to the midpoint of a concentration-inhibition curve. B2: in assay [1], the Fold affinity change (vs TAT-P4-(C5)2) worked out at 1 fold. Besides, the values for the Ki in assay [1] and in assay [3] were 4 nM and 6.6 nM, respectively. The figures for the IC50 in assay [2] and in assay [4] were 1170 nM and 7 nM, respectively. The fold shift in affinity in assay [3] amounted to 301 fold.
